According to PMC6123696, “Multitasking of Hsp70 chaperone in the biogenesis of bacterial functional amyloids” (Communications Biology, 2018):

B1: N-terminal 8-amino acid peptide of CsgA (NH2-KLLKVAAI-COOH) (peptide)
peptide: H-KLLKVAAI-OH
notes: source: synthetic peptide, CelluSpot peptide array (Intavis Bioanalytical Instruments)
B2: CsgA_(133–151) (R5, the most amyloidogenic of the five repeats) (peptide)
peptide: SSVNVTQVGFGNNATAHQY
notes: source: synthetic peptide (Eurofins Genomics, HPLC >95%)
B3: N-terminal 8-amino acid peptide of CsgB (NH2-KNKLLFMM-COOH) (peptide)
peptide: H-KNKLLFMM-OH
notes: as for B1
B4: CsgA_(2–20) (signal peptide of CsgA without the N-terminal Met) (peptide)
peptide: KLLKVAAIAAIVFSGSALA
notes: also called CsgA signal peptide; source: synthetic peptide (Eurofins Genomics, HPLC >95%)

How the values were obtained:
[1] = biological target: T1, N-terminal His-tagged DnaK (His-DnaK) (E. coli, UniProt P0A6Y8 1-638); test: peptide or protein array; CelluSpot array of cellulose-bound peptides on glass slides (8-residue peptides overlapping by seven); 50 nM His-DnaK in DB buffer (25 mM Tris-HCl pH 7.5, 150 mM NaCl, 10 mM KCl, 0.05% Tween 20, 5% sucrose) overnight at 4 °C; detected with HRP-conjugated anti-His antibody; settings: both partners purified
T1 construct: also called DnaKWT; bacterial Hsp70; source: E. coli BL21 (DE3), from pDnaKWT (ASKA clone), purified (TALON, Mono Q, Superdex G-200); not shown: His tag, N-terminal, kept

[2] = biological target: T1, N-terminal His-tagged DnaK (His-DnaK); test: SPR; BIAcore T200; CsgA peptides immobilised on a CM7 chip by EDC/NHS coupling; DnaK 50–1000 nM as analyte, single-cycle kinetics; 25 °C; HBS-DM buffer (10 mM HEPES pH 7.4, 150 mM NaCl, 5 mM MgCl2, 1% dimethylsulfoxide); 30 μL min^−1; fit with a 1:1 binding mode; settings: both partners purified

T1 sequence (P0A6Y8 whole entry): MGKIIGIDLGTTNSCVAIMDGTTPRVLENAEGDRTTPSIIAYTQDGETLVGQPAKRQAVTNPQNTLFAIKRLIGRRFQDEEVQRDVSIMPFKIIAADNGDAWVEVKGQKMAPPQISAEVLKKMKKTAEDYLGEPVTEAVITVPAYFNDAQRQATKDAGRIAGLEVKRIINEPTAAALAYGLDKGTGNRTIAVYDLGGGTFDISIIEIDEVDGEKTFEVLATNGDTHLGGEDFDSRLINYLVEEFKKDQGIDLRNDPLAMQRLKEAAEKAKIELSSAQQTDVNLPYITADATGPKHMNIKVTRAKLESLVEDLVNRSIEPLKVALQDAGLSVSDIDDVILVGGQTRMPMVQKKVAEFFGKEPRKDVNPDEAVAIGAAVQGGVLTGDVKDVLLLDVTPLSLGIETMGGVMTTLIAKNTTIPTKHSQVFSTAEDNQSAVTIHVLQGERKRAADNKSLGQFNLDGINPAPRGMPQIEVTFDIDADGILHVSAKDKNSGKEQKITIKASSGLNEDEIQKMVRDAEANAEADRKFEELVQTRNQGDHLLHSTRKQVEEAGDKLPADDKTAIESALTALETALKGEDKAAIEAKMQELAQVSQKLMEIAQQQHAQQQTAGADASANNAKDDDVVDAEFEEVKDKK

Row | Binder | binding result [1] | Kd [2] | koff [2] | kon [2]
1 | B1 | binds |  |  | 
2 | B2 |  | 20.7 nM | 9.77e-05 s⁻¹ | 4720 M⁻¹ s⁻¹
3 | B3 | binds |  |  | 
4 | B4 |  | 2.19 nM | 0.000256 s⁻¹ | 117000 M⁻¹ s⁻¹
